# Data taken from US20200316120A1 (IMMPACT BIO, published 2020).
# B1: HLA-A2 iCAR (inhibitory chimeric antigen receptor; HLA-A2 scFv from hybridoma BB7.2 fused to PD-1 hinge, transmembrane and intracellular domains) (receptor)
# chain: EQKLISEEDLQVQLQQSGPELVKPGASVKMSCKASGYTFTSYHIQWVKQRPGQGLEWIGWIYPGDGSTQYNEKFKGKTTLTADKSSSTAYMLLSSLTSEDSAIYFCAREGTYYAMDYWGQGTSVTVSSGGGGSGGGGSGGGGSDVLMTQTPLSLPVSLGDQVSISCRSSQSIVHSNGNTYLEWYLQKPGQSPKLLIYKVSNRFSGVPDRFSGSGSGTDFTLKISRVEAEDLGVYYCFQGSHVPRTFGGGTKLEIKTERRAEVPTAHPSPSPRPAGQFQTLVVGVVGGLLGSLVLLVWVLAVICSRAARGTIGARRTGQPLKEDPSAVPVFSVDYGELDFQWREKTPEPPVPCVPEQTEYATIVFPSGMGTSSPARRGSADGPRSAQPLRPEDGHCSWPL
# Target: HLA-A2 (recombinant, on Raji-HLA-A2 target cells) (human)
# Assay: cell-based or functional assay
binder,measurement,value
B1,inhibition of effector T cells expressing the two CARs at a 1:1 ratio (CD107a figure series),50%
same,"percent inhibition of CD107a expression on CD8 T cells; 100*(1-(CD107a with Raji-A2/CD107a with Raji)), aCAR to iCAR ratio 1:5",84%
